Legend:
[1] = biological target: Staphylococcus aureus exfoliative toxin E (Staphylococcus aureus); assay: SAXS; 5 mg/mL ETE in 20 mM MES pH 7.0, 150 mM NaCl, 25 °C; pair distance distribution by indirect Fourier transform
[2] = biological target: Staphylococcus aureus exfoliative toxin E (Staphylococcus aureus); assay: native gel or EMSA; BN-PAGE 15%, 30 ug protein, running buffer 25 mM Tris pH 8.3, 192 mM glycine; BSA monomer and bovine beta-trypsin as markers; Coomassie stain
[3] = biological target: Staphylococcus aureus exfoliative toxin E (Staphylococcus aureus); assay: SEC; Superdex G75 10/300 GL, 0.7 mL/min; several buffers, NaCl concentrations and pH values (among them 20 mM MES pH 7.0, 150 mM NaCl); BSA (~66 kDa) and bovine beta-trypsin (~24 kDa) as size controls; absorbance at 230 nm
[4] = biological target: ETE/P186G mutant (Staphylococcus aureus); assay: not stated; shown in Figure S5 (not shown); the methods tell SEC of ETE/P186G in 20 mM MES pH 7.0, 150 mM NaCl and BN-PAGE of peak fractions

Row | Substance | stoichiometry N [1] | stoichiometry N [2] | stoichiometry N [3] | stoichiometry N [4]
1 | Staphylococcus aureus exfoliative toxin E (enzyme) | 2 | 2 | 2 | –
2 | ETE/P186G mutant (enzyme) | – | – | – | 2

From paper PMC9456352
